One assay addresses CD44-CFP (UniProt P16070). Description: FRET or BRET; u-adFRET (acceptor-depletion FRET with linear spectral unmixing) in U251MG cells co-transfected with YFP (Venus) acceptor and CFP donor fusions, fixed in 4% paraformaldehyde; FRET efficiency by region of the cell (cytosol, peripheral, focal adhesion).
A further assay addresses CFP-vinculin (UniProt P18206). Described as above.
Chain of UniProt P18206 (P18206 whole entry): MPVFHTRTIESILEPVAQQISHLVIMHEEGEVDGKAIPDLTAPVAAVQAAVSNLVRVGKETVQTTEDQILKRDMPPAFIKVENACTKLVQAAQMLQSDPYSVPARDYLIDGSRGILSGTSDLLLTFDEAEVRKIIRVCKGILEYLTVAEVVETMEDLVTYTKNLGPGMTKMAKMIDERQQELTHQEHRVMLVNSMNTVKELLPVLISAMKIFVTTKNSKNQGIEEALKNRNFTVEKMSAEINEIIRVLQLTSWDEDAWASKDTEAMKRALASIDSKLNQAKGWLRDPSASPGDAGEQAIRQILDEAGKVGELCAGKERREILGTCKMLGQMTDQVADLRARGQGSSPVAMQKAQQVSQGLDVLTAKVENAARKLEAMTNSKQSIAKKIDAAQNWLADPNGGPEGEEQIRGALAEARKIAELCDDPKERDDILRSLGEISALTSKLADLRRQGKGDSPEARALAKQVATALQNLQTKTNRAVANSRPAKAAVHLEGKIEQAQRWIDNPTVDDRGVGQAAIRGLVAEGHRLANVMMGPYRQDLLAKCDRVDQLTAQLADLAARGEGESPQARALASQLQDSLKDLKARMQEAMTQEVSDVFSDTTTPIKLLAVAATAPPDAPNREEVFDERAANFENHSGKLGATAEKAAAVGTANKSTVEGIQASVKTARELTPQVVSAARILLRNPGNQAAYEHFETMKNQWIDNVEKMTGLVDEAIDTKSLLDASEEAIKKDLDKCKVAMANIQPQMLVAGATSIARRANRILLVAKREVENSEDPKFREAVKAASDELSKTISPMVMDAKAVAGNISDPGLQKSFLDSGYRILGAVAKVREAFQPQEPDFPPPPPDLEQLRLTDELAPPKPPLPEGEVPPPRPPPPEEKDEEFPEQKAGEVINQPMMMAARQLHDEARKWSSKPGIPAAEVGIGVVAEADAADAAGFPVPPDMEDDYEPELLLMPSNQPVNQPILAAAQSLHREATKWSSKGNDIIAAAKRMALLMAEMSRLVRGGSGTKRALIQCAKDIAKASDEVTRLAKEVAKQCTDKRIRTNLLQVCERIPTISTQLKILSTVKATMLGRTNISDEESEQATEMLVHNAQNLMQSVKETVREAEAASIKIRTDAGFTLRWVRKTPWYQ

Chain of UniProt P16070 (P16070 21-742): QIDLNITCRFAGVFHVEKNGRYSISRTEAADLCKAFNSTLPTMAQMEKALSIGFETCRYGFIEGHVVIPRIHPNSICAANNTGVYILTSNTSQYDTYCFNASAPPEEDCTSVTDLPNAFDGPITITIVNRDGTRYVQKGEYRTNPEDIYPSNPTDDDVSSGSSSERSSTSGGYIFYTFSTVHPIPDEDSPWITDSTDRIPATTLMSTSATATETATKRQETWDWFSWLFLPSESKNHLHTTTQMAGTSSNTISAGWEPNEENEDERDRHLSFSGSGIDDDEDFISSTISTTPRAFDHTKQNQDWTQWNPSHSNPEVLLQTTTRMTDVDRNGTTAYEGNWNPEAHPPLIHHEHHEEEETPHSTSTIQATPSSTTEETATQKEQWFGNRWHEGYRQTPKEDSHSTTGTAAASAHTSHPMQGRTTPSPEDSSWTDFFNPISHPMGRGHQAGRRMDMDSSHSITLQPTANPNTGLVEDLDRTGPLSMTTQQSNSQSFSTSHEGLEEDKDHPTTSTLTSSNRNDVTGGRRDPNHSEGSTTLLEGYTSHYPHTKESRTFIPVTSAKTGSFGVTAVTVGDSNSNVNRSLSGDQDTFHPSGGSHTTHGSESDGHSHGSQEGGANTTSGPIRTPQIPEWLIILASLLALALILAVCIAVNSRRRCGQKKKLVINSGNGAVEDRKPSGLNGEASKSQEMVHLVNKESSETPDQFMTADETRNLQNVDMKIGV

For “YFP-hMena (human Mena fused to monomeric Venus) (from UniProt Q8N8S7 1-591) (natural protein)”, in the assay with CD44-CFP, the FRET efficiency (cytosol) was -7 and the FRET efficiency (peripheral) is -2. Besides, in the assay with CFP-vinculin, the FRET efficiency (FA, focal adhesion) is 19.

(Values after paper PMC2651628.)
